Experimental data taken from the DeepSol protein solubility set.

Test: soluble on expression in E. coli; label from the status in PepcDB or PDB records

Sequence: MRKLTALFVASTLALGAANLAHAADTTTAAPADAKPMMHHKGKFGPHQDMMFKDLNLTDAQKQQIHEIMKGQRDQMKRPPLEERRAMHDIIASDTFDKAKAEAQIAKMEEQRKANMLAHMETQNKIYNILTPEQKKQFNANFEKRLTERPAAKGKMPATAELEHHHHHH
- soluble on expression in E. coli: soluble

Sequence: MDTTKTIAALFDFDGVIMDTETQYTVFWDEQGRKYLNEEDFGRRIKGQTLTQIYEKYFSDLPEAQQEITAGLNIYEKSMSYEYIPGVEAFIADLRKHGAKIAVVTSSNEEKMQNVYNAHPEFKGMVDRILTGEMFARSKPAPDCFLLGMEIFGATPENSYVFEDSFHGLQAGMTSGATVIGLATTNTREAITGKAHYIIDDFSEMTFEHLLALHR
- soluble on expression in E. coli: not soluble

Sequence: MGCSSSALNKAGDSSRFPSVTSNEHFSTAEESESCFAQPKPHALGRESTVDGNVQRESRPPLQKLKVSAEPTANGVKPLQEQPLAKDVAPGRDATDQSGSTEKTQPGEGLEESGPPQPGGKEDAPAAEGKKKDAGAGTEAESLKGNAEAQPLGPEAKGQPLQAAVEKDSLRAVEVTENPQTAAEMKPLGTTENVLTLQIAGELQPQGTVGKDEQAPLLETISKENESPEILEGSQFVETAEEQQLQATLGKEEQPQLLERIPKENVTPEVLDRSQLVEKPVMNDPFHKTPEGPGNMEQIQPEGIVGSMEHPARNVEAGAYVEMIRNIHTNEEDQRIEGETGEKVETDMENEKVSEGAETKEEETGEVVDLSAAT
- soluble on expression in E. coli: soluble

Sequence: MGSDKIHHHHHHMDSLLFGISGLPNRNSNKKFTYKTGIEYLREIGLDAMELPFVRSVNITDKNKNEVLDTKLKNDFYLSAHGSYFINLNADEEEKIEKSLERIIKGAEGLKKVQGKSLIFHPGFYLKDSKEETFETIKENLLRLPDLGVDYRLETTGKGTQFGSLEENVALCKAVDTCKLCIDFSHIHARYNGSLKSYDDFARILNYVGNELGDEGLNDMHIHLSGINYTAKGERNHLPFEESDFNYKDCLKAFRDFDIKGCVICESPVLEHDALLLKNYYETL
- soluble on expression in E. coli: not soluble

Sequence: MKSLQSSLGNIETFKLDELCPKHEIQLTQIKGERHVVVGWNENGEAIKEVRCIPPYCEQCQEEQKKQDEEDAIADNLNAKLYMQTYNVLMSNKSYVADEFKTKTFDDFNAVTSEEKRFLEFAKGQVQKYLDGMRGNTLITGGTGIGKTLLSVAIAKGINEGYKTKGEPKSVLFVSLTEMIKQIKEGWNYGKGATLTEFEATELMKSVDYLIIDDLGAKNAVIKPKSDWEQDLLFDVLNNRENTIFNTNLDSDELKIVYNERNYSRILKGLEGNTFKAFGIKYKRYSLNQLKSNM
- soluble on expression in E. coli: not soluble

Sequence: MQMLDRLESEILADRVSEESRRWLASCGLTVEQMKNQMDPVYTPARKIHLYHCDHRGLPLALISTEGATAWCAEYDEWGNLLSDENPHHLQQLIRLPGQQYDEESGLYYNRHRYYDPLLGRYITQDPIGLKGGWNFYQYPLNPVINVDPQGLVDINLYPESDLIHSVADEINIPGVFTIGGHGTPTSIESATRSIMTAKDLAYLIKFDGNYKDGMTVWLFSCNTGKGQNSFASLEHHHHHH
- soluble on expression in E. coli: not soluble

Sequence: LINQAEVDIYDIPVALITEQYMAYIHTMQELQLDVASEYLVMAATLLQIKSKMLLPKQEEIFDETFEYEEEDPREELMFRLIEYRRYKEAAQELKEKEGERSQVHTRLPDNLDDYLTEEERQRQSIQGVTLFDMLAAYQKLLKRRAYSRPRTSTVKVEEYSIDERMTDILMDLEKCNGKCRFQDLFV
- soluble on expression in E. coli: not soluble

Sequence: MSLQQGINKPIFQQAKLFRYQLPFKIPIVFKGIKLTAREGVILQVQNDKGEFNFAEIAPLPGFSKETLQQATAQIIALLNTPPLNSQSDILLYPSVAFALDCILHNIPISELFKTAESIPLLQGDNHSVLKQYLQMNKPNSVKLKIGRQSVAKDITLFSALSALNNNLLIRCDANQSWTFAQADLFFANINTQLIDYIEEPTASLSDNINLAERYEVQLALDETLQQKQFQYQHHRCFKALILKPTLIGSFERLNYFIKTAKKFHLSVSISSSFESPLGLSQLAFMASQWSKEVDISCGLDTLKFFESAILNKNSDKKLDNKTPINQQVKHLECLWTSNEGHHHHHH
- soluble on expression in E. coli: soluble

Sequence: MCEIFAKQPQDNYQFITRSIRIDGHATSVKLESSFWTILEEIASAQDMTVPKFISTVYQEALEYNGEVNNFASLLRCACLTYARQPENTLHQALAQLN
- soluble on expression in E. coli: not soluble

Sequence: MGSDKIHHHHHHMSQSIPEPHWHQTPQEFLASWSTSRGNLRRFFEEHALPPIDARTQREAGEAAAELAASELFGIKLDEYTSGLDSVSGSFEAAGAQHVTTANPEIPQDIGAAAFFDIDNTLIQGSSLVVFAMGLAKKKYFKLNEILPVAWKQIKFRVTGNENAHDVAEGRQQALEFIKGRRVDELVALCEEIVDNNMSEKLWPGTKQLADQHIADGQQVWLVSATPVQLAQALAKRLGFTGALGTVAEVKDGVFTGRLVGDILHGPGKLHAVAALATIERLDLSRCTAYSDSINDVPMLSMVGTAVAINPDRPLAKVAKQHGWAVRDYRSLRKAIRTFGIPALVTAAFSFGGWKAWRR
- soluble on expression in E. coli: not soluble

Sequence: MSLVTVSDVKQYHFCKAIPWINYVMGYREPSTFSMEEGKKISYEEVVKSLNLTTPVKYEVCLSYNGLSGCIDILAGDRKYTVVEVKAFKRGNFSHFRYQLLAYAYLVRKRLGIVERAILVMEGKKVLEIEPTEEHYRYIENVVKKIEEIVNSEKLPAVNVEKCDFCQYRRICPVSVWSEGHHHHHH
- soluble on expression in E. coli: soluble

Sequence: MLRHLGQLSVAHRGSGLHDAYVVNPAQQLDPELAPPPVVYVLETSYVALLLKNPEDVGYQLARRHDYCFALAPHLCILYSRHRVCERVKHHHSHPPPATCSS
- soluble on expression in E. coli: soluble

Sequence: MGSDKIHHHHHHMPKPTKIVVLLKGYPRLSETFIAQELLGLEQAGFALELVAMRRPTDKKRHPVHDEIQAPVHYLPEYLHEEPGRVLKALWAVRRLPGFRPVLTQFFKDLRRDFSRNRFRRLGQAMVLVAEWPGKADWLHAHFIHTPASVAFYASLLGSRGFSVSAHAKDIWTSESWDLADKLAHATWVVTCTKVGFDRLSALADGRGSVHLSYHGLDLDRFPHFEGVRPARDGSDTADPLRLLSVGRAVKKKGYDVLLRALSALPADLNWHFTHIGGGDELVRLQALADQLGIASRITWKGAMDQRDVLTHYRDSDLFTLACRITADGDRDGLPNVLVEAASQGLMPVSTTVSGISELFVDGENGLLVEPDDAQALAVALEKAMRDPALRARLGSAAEGKVRRDFDYRNSIRDLTDLFSGRQ
- soluble on expression in E. coli: not soluble

Sequence: SMPDEVPLDEQCERLPYDASKWEFARERLKLGKSLGRGAFGKVVQASAFGIKKSPTCRTVAVKMLKEGATASEYKALMTELKILTHIGHHLNVVNLLGACTKQGGPLMVIVEYCKYGNLSNYLKSKRDLFFLNKDAALHMEPKKEKMEPGLEQGKKPRLDSVTSSESFASSGFQEDKSLSDVEEEEDSDGFYKEPITMEDLISYSFQVARGMEFLSSRKCIHRDLAARNILLSENNVVKICDFGLARDIYKNPDYVRKGDTRLPLKWMAPESIFDKIYSTKSDVWSYGVLLWEIFSLGGSPYPGVQMDEDFCSRLREGMRMRAPEYSTPEIYQIMLDCWHRDPKERPRFAELVEKLGDLL
- soluble on expression in E. coli: soluble

Sequence: MPNDIENGTVIPPRRGVVWKIEEKELQGFAIPFPGADLSVMVRSQYYDATVRKSRPVHLSSYFQLDTRFKTYRLILWGAITRAFALASFTRRILLKYPDQCSFRMFKKSGPSAQQIAEASFTYWFFGYGYKETIPLDQQHERKVDRKVVATCKGPDLAYMAASGCVLSAALALVKDKNNLPKEGGVYTPAAAFGDSKIYDYLATFGINFHLESEYDL
- soluble on expression in E. coli: not soluble

Sequence: MLNKVFIIGRLTGDPVITYLPSGTPVVEFTLAYNRRYKNQNGEFQEESHFFDVKAYGKMAEDWATRFSKGYLVLVEGRLSQEKWEKEGKKFSKVRIIAENVRLINRPKGAELQAEEEEEVPPIEEEIEKLGKEEEKPFTDEEDEIPF
- soluble on expression in E. coli: soluble

Sequence: TKNWKWEMNFNIAKNSNKLVELADGVDSYSIYWTSFTTRLYNYAMVGKSLGVITGNTWERDDNGNIIFHELSASQKALYGGEYVPTYNQNTLDELGNFHPDFTGGFNTSISFKNFRLSANIDFSVGGQIVSYTNMWGSSSGILDKTAELNDRGVNVREPVSKGGGIHMTGVDQNGNKVDTYVNAKLYYTTASRVWEEWVYDRTYVKLREVSLSYVFPSQTLKKLNIGLSRASVAINASNPWLIYSACPNVDVSEIGMGYFEGGNAAATRSIGFTVNLAF
- soluble on expression in E. coli: not soluble

Sequence: MSLQPHLICLDLDGTLLNDNKEISSYTKQVLNELQQRGHQIMIATGRPYRASQMYYHELNLTTPIVNFNGAYVHHPKDKNFKTCHEILDLGIAQNIIQGLQQYQVSNIIAEVKDYVFINNHDPRLFEGFSMGNPRIQTGNLLVHLKESPTSILIEAEESKIPEIKNMLTHFYADHIEHRRWGAPFPVIEIVKLGINKARGIEQVRQFLNIDRNNIIAFGDEDNDIEMIEYARHGVAMENGLQELKDVANNITFNNNEDGIGRYLNDFFNLNIRYYEGHHHHHH
- soluble on expression in E. coli: soluble

Sequence: MAQGTVEARHGALDEAALGIGRWRWDLRSQELVWSEEERAIFGLAPGAPVPGFAAFSAMIHPDDRARVVAAVSETLAQRRLRHSIGFRILRPDGTMRQILSHGRLVMGLDGKPISLEGVDLDLT
- soluble on expression in E. coli: not soluble

Sequence: MLKSKKRLLNPDYLFVTQDESSFYLDSNRSKCWAIKGSKPIKFISGSKTKINIGGFYTENRDFYWYDLGIKKNTDSFLKSLIKLKKDIGRKIFLLLDRATWHKSKKAREFFQNNKYWLQILLFPPATPDRNPTEYCWKTTREELTSIKSFKNIKVLKEELDEFWEKHVFTHKMSHYLKWLEHHHHHH
- soluble on expression in E. coli: not soluble

Sequence: MAKTIAYDEEARRGLERGLNALADAVKVTLGPKGRNVVLEKKWGAPTITNDGVSIAKEIELEDPYEKIGAELVKEVAKKTDDVAGDGTTTATVLAQALVREGLRNVAAGANPLGLKRGIEKAVEKVTETLLKGAKEVETKEQIAATAAISAGDQSIGDLIAEAMDKVGNEGVITVEESNTFGLQLELTEGMRFDKGYISGYFVTDPERQEAVLEDPYILLVSSKVSTVKDLLPLLEKVIGAGKPLLIIAEDVEGEALSTLVVNKIRGTFKSVAVKAPGFGDRRKAMLQDMAILTGGQVISEEVGLTLENADLSLLGKARKVVVTKDETTIVEGAGDTDAIAGRVAQIRQEIENSDSDYDREKLQERLAKLAGGVAVIKAGAATEVELKERKHRIEDAVRNAKAAVEEGIVAGGGVTLLQAAPTLDELKLEGDEATGANIVKVALEAPLKQIAFNSGLEPGVVAEKVRNLPAGHGLNAQTGVYEDLLAAGVADPVKVTRSALQNAASIAGLFLTTEAVVADKPEKEKASVPGGGDMGGMDF
- soluble on expression in E. coli: soluble

Sequence: MDGSVVRHEERLNVGKERVESGRMRIRKHVVHDTETVEVPVEREEIHVERVPLDEKVAADDAKLSEGTQDIVTHEERPVVNKETVGVEKIKIGKEAVQDTETVSGKVAKEQIDIDNAKHTKLEHHHHHH
- soluble on expression in E. coli: not soluble

Sequence: MGSDKIHHHHHHMLNFYPGPSKLHANIDLHLQQAITSGILSMNHRSMDFMQLYQQVQENFEQFYDLPKDYKVYFTSAATECWTILAQSFPNRSFLHLYNGSFGKKWMEVSKQLEVEHTSVVFDIHGELPVTEINPDTAAEIVCTTLVETSNGTFLSKDIQAAVRETFSDALIAVDATSALAGLSVTWEHADIWFASVQKCFGLPSGLGILILSPTAQHTVEFRSKDIHYNSLKRIVENGASFQTTHTPNILGIYLLAQRLKEIDVTEFFNRNERMNYLYNHFSSHPSLQPLIIEKSVQSATVLTLKGDEEYIKQVKKSLKAQDIIIGSGYGVWKENTIRLANFPAHTDEDFKKLLLVI
- soluble on expression in E. coli: not soluble
